In PMC5693625:
Where two headings read alike, the source gives them in different places.

Key:
Assay in all cases: functional binding isotherm
DDX3X [1] = target: T1, DDX3X (Homo sapiens, UniProt O00571 1-662)
DDX3X [2] = target: T1, DDX3X; remark: listed apart in the source
DDX3X [3] = target: T1, DDX3X; remark: listed apart in the source

T1 sequence (O00571 whole entry): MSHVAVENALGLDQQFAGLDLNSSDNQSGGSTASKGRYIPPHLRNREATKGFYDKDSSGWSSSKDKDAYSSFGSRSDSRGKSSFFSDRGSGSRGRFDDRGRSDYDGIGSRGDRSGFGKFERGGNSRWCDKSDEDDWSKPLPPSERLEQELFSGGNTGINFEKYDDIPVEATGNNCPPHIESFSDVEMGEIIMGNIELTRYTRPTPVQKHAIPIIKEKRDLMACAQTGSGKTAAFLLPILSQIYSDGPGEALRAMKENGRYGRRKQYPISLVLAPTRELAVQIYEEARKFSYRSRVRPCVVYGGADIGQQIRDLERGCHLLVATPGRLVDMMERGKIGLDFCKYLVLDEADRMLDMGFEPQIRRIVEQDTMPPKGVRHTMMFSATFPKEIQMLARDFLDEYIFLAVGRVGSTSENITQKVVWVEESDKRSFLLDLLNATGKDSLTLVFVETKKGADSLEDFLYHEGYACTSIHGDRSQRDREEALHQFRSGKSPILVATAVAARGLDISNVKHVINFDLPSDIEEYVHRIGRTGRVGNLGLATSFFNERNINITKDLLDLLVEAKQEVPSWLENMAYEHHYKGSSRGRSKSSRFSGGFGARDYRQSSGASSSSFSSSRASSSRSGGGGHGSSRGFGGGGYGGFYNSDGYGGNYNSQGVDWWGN

B1: 16 bp RNA, 25 nt 3' tail (R16-3'c/R41-3'c) (dsRNA)
RNA 1: CCGUCUUUACGGUGCU
RNA 2: AGCACCGUAAAGACGGUAAAACAAAACAAAACAAAACAAAA
- apparent K (half saturation) (DDX3X [1]): 118 ± 5 nM

B2: 13 bp RNA, 25 nt 5' tail (R13-5'a/R38-5'a) (dsRNA)
RNA 1: CGAAAUGCCACGA
RNA 2: AAAACAAAACAAAACAAAACAAAAUUCGUGGCAUUUCG
- apparent K (half saturation) (DDX3X [2]): 139 ± 21 nM

B3: 16 bp RNA, 15 nt 3' tail (dsRNA)
RNA 1: CCGUCUUUACGGUGCU
RNA 2: AGCACCGUAAAGACGGUAAAACAAAACAAAA
- apparent K (half saturation) (DDX3X [1]): 298 ± 4 nM

B4: 19 bp RNA, 25 nt 5' tail (R19-5'c/R44-5'c) (dsRNA)
RNA 1: CAGAGGAGCAGAGGGAGCA
RNA 2: AAACUACGACUACAGUAACUACGACUGCUCCCUCUGCUCCUCUG
- apparent K (half saturation) (DDX3X [3]): 166 ± 18 nM

B5: 16 bp RNA, 25 nt 5' tail (R16-5'a/R41-5'a) (dsRNA)
RNA 1: AGCACCGUAAAGACGC
RNA 2: AAAACAAAACAAAACAAAACAAAAUGCGUCUUUACGGUGCU
- apparent K (half saturation) (DDX3X [3]): 119 ± 35 nM
- apparent K (half saturation) (DDX3X [1]): 127 ± 20 nM
